Numbering of substitutions follows the chain as printed. Numbers in names are those of the source.
B1: γ subunit of the E. coli clamp loader (residues 1-373) (domain or fragment, UniProt P06710 1-373, looked up)
chain: MSYQVLARKWRPQTFADVVGQEHVLTALANGLSLGRIHHAYLFSGTRGVGKTSIARLLAKGLNCETGITATPCGVCDNCREIEQGRFVDLIEIDAASRTKVEDTRDLLDNVQYAPARGRFKVYLIDEVHMLSRHSFNALLKTLEEPPEHVKFLLATTDPQKLPVTILSRCLQFHLKALDVEQIRHQLEHILNEEHIAHEPRALQLLARAAEGSLRDALSLTDQAIASGDGQVSTQAVSAMLGTLDDDQALSLVEAMVEANGERVMALINEAAARGIEWEALLVEMLGLLHRIAMVQLSPAALGNDMAAIELRMRELARTIPPTDIQLYYQTLLIGRKELPYAPDRRMGVEMTLLRALAFHPRMPLPEPEVPRQ
notes: γ subunit of the E. coli clamp loader, truncated form, residues 1-373; Stands for the single γ subunits within the γ-complex; also called γ protein; B, C and D subunits; source: E. coli BLR21(DE3), purified (HisTrap, Prescission Protease, HisTrap flowthrough); not shown: His6, N-terminal, cleaved
B2: γ-K141A (domain or fragment, E. coli, UniProt P06710 1-373, looked up)
chain: B1 chain with K141A
notes: γ subunit of the E. coli clamp loader with K141A; insert bought from Twist Bioscience; the range 1-373 is stated for the γ subunit in general; The limits 1-373 are not repeated for the mutant itself; source: E. coli BLR21(DE3), purified (Nickel NTA agarose, Prescission Protease, HisTrap); not shown: His6, N-terminal, cleaved

Assays:
[1] = target: the molecule itself; experiment: cryo-EM structure; 2.5 μM clamp loader and 2.2 μM sliding clamp, 1 mM ADP·BeFx, cross-linked with 1 mM BS3; 25 mM HEPES-NaOH pH 8.0, 200 mM NaCl, 4 mM MgCl2, 1 mM TCEP; Semi-Open and Fully-Open states
[2] = target: the molecule itself; experiment: reconstitution and co-elution on anion exchange (HiTrap Q); purified γ (WT or K141A), δ and δ′ (WT or K130A) combined 2.5:1:1, dialysed into Buffer Q-A (50 mM Tris pH 7.5, 50 mM NaCl, 10% glycerol, 2 mM DTT) overnight at 4 °C, eluted from a HiTrap Q column with a NaCl gradient; fractions with the intact complex pooled

Protein	binding result [1]	binding result [2]
B1	binds	–
B2	–	binds
